The numbers were not newly measured in US20010007853A1, “METHOD FOR ADMINISTERING MONOMERIC INSULIN ANALOGS” (priority 1998, published 2001), which cites them from elsewhere.

The conditions of the data set: calculated.

For the substance glycosylated α1-antitrypsin, the “Absorption values for proteins delivered through the lungs” value is 48 h.

parathyroid hormone (fragment 1-34): the “Absorption values for proteins delivered through the lungs” value is listed as “fifteen”.
